The values that follow come from patent US6489103.

For the data set, the system named is M.HhaI DNA methyltransferase (Haemophilus parahaemolyticus). The data set can be described thus: cleavage_in_vitro. The note with it: up to 20% of compartmentalised genes protected from HhaI after 60-180 min; HaeIII and EcoRI sites not protected; SAM 80 uM, 25-30 C.

As for DIG-M.HhaI-Biotin 1167 bp fragment, the activity came out at 20%.
